Source: publication PMC9513805, “A natural transdifferentiation event involving mitosis is empowered by integrating signaling inputs with conserved plasticity factors”

Assays:
SOX-2;HMG-POP-1-FLAG [1] = target: T1, SOX-2;HMG-POP-1-FLAG (Caenorhabditis elegans;Caenorhabditis …, UniProt Q21305;Q10666 1-283;181-281, |); assay: EMSA; co-incubation; upper co-binding band, supershift series with anti-HA and/or anti-FLAG; 20 mM Tris-HCl pH 8.0, 100 mM NaCl, 100 ug/mL BSA, 1 mM EDTA, 1 mM DTT, 0.1% NP-40; 20 min on ice (supershift 30 min at room temperature), 200 ng Cy5 probe; 6%; conditions: protein: recombinant;recombinant; tags: N-terminal 6xHis, C-terminal HA (pSJ6094);N-terminal 6xHis, C-terminal FLAG (pSJ1107); copies: 1;1; label: Cy5 on forward strand; blunt
T1 sequence (Q21305 whole entry, chain 1 of 2): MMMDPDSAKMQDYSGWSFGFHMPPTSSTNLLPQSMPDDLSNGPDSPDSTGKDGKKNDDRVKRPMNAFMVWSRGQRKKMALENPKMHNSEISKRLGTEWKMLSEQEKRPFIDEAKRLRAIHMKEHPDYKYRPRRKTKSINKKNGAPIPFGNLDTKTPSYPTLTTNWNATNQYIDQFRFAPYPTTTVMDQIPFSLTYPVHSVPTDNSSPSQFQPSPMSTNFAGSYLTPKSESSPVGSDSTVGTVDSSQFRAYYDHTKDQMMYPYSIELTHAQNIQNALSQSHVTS
T1 sequence (Q10666 181-281, chain 2 of 2): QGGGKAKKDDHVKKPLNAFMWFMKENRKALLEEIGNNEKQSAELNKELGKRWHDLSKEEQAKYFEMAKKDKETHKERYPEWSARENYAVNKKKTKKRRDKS

SOX-2;HMG-POP-1-FLAG [2] = target: T1, SOX-2;HMG-POP-1-FLAG; assay: EMSA supershift; anti-FLAG; 20 mM Tris-HCl pH 8.0, 100 mM NaCl, 100 ug/mL BSA, 1 mM EDTA, 1 mM DTT, 0.1% NP-40; 20 min on ice (supershift 30 min at room temperature), 200 ng Cy5 probe; 6%; conditions: protein: recombinant;recombinant; tags: N-terminal 6xHis, C-terminal HA (pSJ6094);N-terminal 6xHis, C-terminal FLAG (pSJ1107); copies: 1;1; label: Cy5 on forward strand; blunt
SOX-2;HMG-POP-1 = SOX-2;HMG-POP-1 (Caenorhabditis elegans;Caenorhabditis …, UniProt Q21305;Q10666 1-283;181-281, |); assay: EMSA; SOX-2 125-500 nM added to HMG-POP-1; upper shift, most probably ternary complex; 20 mM Tris-HCl pH 8.0, 100 mM NaCl, 100 ug/mL BSA, 1 mM EDTA, 1 mM DTT, 0.1% NP-40; 20 min on ice (supershift 30 min at room temperature), 200 ng Cy5 probe; 6%; conditions: protein: recombinant;recombinant; tags: N-terminal 6xHis, C-terminal HA (pSJ6094);N-terminal 6xHis (pSJ769); copies: 1;1; label: Cy5 on forward strand; blunt
SOX-2;HMG-POP-1, sequence (Q21305 whole entry, chain 1 of 2): as the sequence (Q21305 whole entry, chain 1 of 2) above
SOX-2;HMG-POP-1, sequence (Q10666 181-281, chain 2 of 2): as the sequence (Q10666 181-281, chain 2 of 2) above

B1: lim-6 intron 4 probe 2 (dsDNA)
DNA 1: CTGCTACCGTAGTGCTTTGTTGATTTAACACACA
DNA 2: TGTGTGTTAAATCAACAAAGCACTACGGTAGCAG
binding result (SOX-2;HMG-POP-1-FLAG [1]): binds

B2: lim-6 intron 4 probe 1 (dsDNA)
DNA 1: TACGATTTGCAAACAACAAACATTCCAGACAGAT
DNA 2: ATCTGTCTGGAATGTTTGTTGTTTGCAAATCGTA
binding result (SOX-2;HMG-POP-1-FLAG [2]): binds | binding result (SOX-2;HMG-POP-1): binds
